In the experiment the target is ^15N labeled FLNA repeat 21.

The molecule MASKPEKRVASSVFITLAPPRRDVRRRRRRRRR [WTMigfilinR9 peptide] gave a CBRM1/5 binding (αMβ2 activation) on human neutrophils treated with 50 µM peptide for 5 min at 37°C, flow cytometry of 2 fold.

Values taken from article PMC3197140.
